Measured values as given in patent publication CN1737011A (SHANGHAI MEI EN BIO TECH CO LT, dated 2006).

Molecular target: HLA-DR10抗原 (on live Raji cells, Burkitt's lymphoma, ATCC CCL-86) (human)
Test: radioimmunoassay with 131I-labelled antibody (5-110 ng/ml) on 10^6 live Raji cells, Scatchard plot, Ka = -(slope/n), n = 2

B1: 抗HLA-DR10的特异性嵌合单克隆抗体 (131I标记, 131I-HLA-DR10) (antibody, V domains shown)
VH: QVQLKESGPGLVAPSQSLSITCTISGFSLTSYGVHWVRQPPGKGLEWLVVIWSDGSTTYNSALKSRLSISKDNSKSQVFLKMNSLQTDDTAIYYCASHYGSTLAFASWGHGTLVTVSA
VL: DIQMTQSPASLSASVGETVTIICRASVNIYSYLAWYQQKQGKSPQLLVYNAKILAEGVPSRFSGSGSGTQFSLKINSLQPEDFGSYYCQHHYGTFTFGSGTKLEIK
modifications: 131I label by the chloramine-T method; labelled residues not stated
notes: Mouse/human chimeric IgG1 kappa made in NS0-clym cells (CCTCC C200405); also called HLA-DR10单抗; chLym抗体; not shown: human immunoglobulin gamma-1 heavy chain constant region (from plasmid pSK-γ1); human immunoglobulin kappa light chain constant region (from plasmid pSK-κ)
  Ka: 3.36e+08 M⁻¹
